Reference: patent US20150344570A1 (published 2015)

What was measured:
[1] = target: T1, FcγRIIa H (FcγRIIa, allotype with His at position 131), extracellular domain with C-terminal His tag (human, UniProt P12318 34-217); assay: SPR (Biacore); He/Con_2aH divided by He/Con_2b (FcγRIIb)
T1 construct: extracellular domain; also called FcgRIIa H; 2aH; not shown: His tag at the C terminus
T1 sequence (looked up): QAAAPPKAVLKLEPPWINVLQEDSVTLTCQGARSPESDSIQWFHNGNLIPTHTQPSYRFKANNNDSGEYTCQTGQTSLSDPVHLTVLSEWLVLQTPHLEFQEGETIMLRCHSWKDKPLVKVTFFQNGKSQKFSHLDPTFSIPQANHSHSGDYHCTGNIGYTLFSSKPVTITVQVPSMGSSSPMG

[2] = target: T1, FcγRIIa H (FcγRIIa, allotype with His …); assay: SPR (Biacore), relative binding vs GpH7-A5/GpH7-B3/GpL16-k0
[3] = target: T2, FcγRIIb, extracellular domain with C-terminal His tag (human, UniProt P31994 43-217); assay: as above
T2 construct: extracellular domain; also called FcgRIIb; 2b; not shown: His tag at the C terminus
T2 sequence (looked up): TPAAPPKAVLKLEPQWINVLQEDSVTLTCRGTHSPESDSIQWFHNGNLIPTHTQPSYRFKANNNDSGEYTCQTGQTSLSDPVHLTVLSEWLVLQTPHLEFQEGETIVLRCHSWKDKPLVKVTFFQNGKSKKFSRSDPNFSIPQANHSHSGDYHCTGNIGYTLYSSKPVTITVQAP

B1: GpH7-A5/GpH7-B3 variant A327_09D/GpL16-k0 (antibody, human IgG1, kappa)
heavy 1: not shown
heavy 2: not shown
light: DIVMTQSPLSLPVTPGEPASISCQASESLVHSNRNTYLHWYLQKPGQSPQLLIYKVSNRFSGVPDRFSGSGSGTDFTLKISRVEAEDVGVYYCSQNTHVPPTFGQGTKVEIERTVAAPSVFIFPPSDEQLKSGTASVVCLLNNFYPREAKVQWKVDNALQSGNSQESVTEQDSKDSTYSLSSTLTLSKADYEKHKVYACEVTHQGLSSPVTKSFNRGEC
notes: Heterodimerized anti-glypican-3 IgG1; mutation in one H chain only; also called He Ab
He_2aH/2b (IIaH/IIb) [1]: 0.61 ratio
He/Con_2aH [2]: 105 % of HeCon Ab (=100)
He/Con_2b [3]: 172 % of HeCon Ab (=100)

B2: GpH7-A5/GpH7-B3 variant L328_10E/GpL16-k0 (antibody, human IgG1, kappa)
heavy 1: not shown
heavy 2: not shown
light: DIVMTQSPLSLPVTPGEPASISCQASESLVHSNRNTYLHWYLQKPGQSPQLLIYKVSNRFSGVPDRFSGSGSGTDFTLKISRVEAEDVGVYYCSQNTHVPPTFGQGTKVEIERTVAAPSVFIFPPSDEQLKSGTASVVCLLNNFYPREAKVQWKVDNALQSGNSQESVTEQDSKDSTYSLSSTLTLSKADYEKHKVYACEVTHQGLSSPVTKSFNRGEC
notes: as for B1
He_2aH/2b (IIaH/IIb) [1]: 0.32 ratio
He/Con_2aH [2]: 55.5 % of HeCon Ab (=100)
He/Con_2b [3]: 172 % of HeCon Ab (=100)

B3: GpH7-A5/GpH7-B3 variant L328_03V/GpL16-k0 (antibody, human IgG1, kappa)
heavy 1: not shown
heavy 2: not shown
light: DIVMTQSPLSLPVTPGEPASISCQASESLVHSNRNTYLHWYLQKPGQSPQLLIYKVSNRFSGVPDRFSGSGSGTDFTLKISRVEAEDVGVYYCSQNTHVPPTFGQGTKVEIERTVAAPSVFIFPPSDEQLKSGTASVVCLLNNFYPREAKVQWKVDNALQSGNSQESVTEQDSKDSTYSLSSTLTLSKADYEKHKVYACEVTHQGLSSPVTKSFNRGEC
notes: as for B1
He_2aH/2b (IIaH/IIb) [1]: 0.78 ratio
He/Con_2aH [2]: 97.8 % of HeCon Ab (=100)
He/Con_2b [3]: 126 % of HeCon Ab (=100)

B4: GpH7-A5/GpH7-B3 variant A327_14T/GpL16-k0 (antibody, human IgG1, kappa)
heavy 1: not shown
heavy 2: not shown
light: DIVMTQSPLSLPVTPGEPASISCQASESLVHSNRNTYLHWYLQKPGQSPQLLIYKVSNRFSGVPDRFSGSGSGTDFTLKISRVEAEDVGVYYCSQNTHVPPTFGQGTKVEIERTVAAPSVFIFPPSDEQLKSGTASVVCLLNNFYPREAKVQWKVDNALQSGNSQESVTEQDSKDSTYSLSSTLTLSKADYEKHKVYACEVTHQGLSSPVTKSFNRGEC
notes: as for B1
He_2aH/2b (IIaH/IIb) [1]: 0.51 ratio
He/Con_2aH [2]: 45.6 % of HeCon Ab (=100)
He/Con_2b [3]: 89.4 % of HeCon Ab (=100)

B5: GpH7-A5/GpH7-B3 variant A327_18N/GpL16-k0 (antibody, human IgG1, kappa)
heavy 1: not shown
heavy 2: not shown
light: DIVMTQSPLSLPVTPGEPASISCQASESLVHSNRNTYLHWYLQKPGQSPQLLIYKVSNRFSGVPDRFSGSGSGTDFTLKISRVEAEDVGVYYCSQNTHVPPTFGQGTKVEIERTVAAPSVFIFPPSDEQLKSGTASVVCLLNNFYPREAKVQWKVDNALQSGNSQESVTEQDSKDSTYSLSSTLTLSKADYEKHKVYACEVTHQGLSSPVTKSFNRGEC
notes: as for B1
He_2aH/2b (IIaH/IIb) [1]: 0.59 ratio
He/Con_2aH [2]: 66.8 % of HeCon Ab (=100)
He/Con_2b [3]: 113 % of HeCon Ab (=100)

B6: GpH7-A5/GpH7-B3 variant L328_15Y/GpL16-k0 (antibody, human IgG1, kappa)
heavy 1: not shown
heavy 2: not shown
light: DIVMTQSPLSLPVTPGEPASISCQASESLVHSNRNTYLHWYLQKPGQSPQLLIYKVSNRFSGVPDRFSGSGSGTDFTLKISRVEAEDVGVYYCSQNTHVPPTFGQGTKVEIERTVAAPSVFIFPPSDEQLKSGTASVVCLLNNFYPREAKVQWKVDNALQSGNSQESVTEQDSKDSTYSLSSTLTLSKADYEKHKVYACEVTHQGLSSPVTKSFNRGEC
notes: as for B1
He_2aH/2b (IIaH/IIb) [1]: 0.47 ratio
He/Con_2aH [2]: 90 % of HeCon Ab (=100)
He/Con_2b [3]: 193 % of HeCon Ab (=100)

B7: GpH7-A5/GpH7-B3 variant I332_10E/GpL16-k0 (antibody, human IgG1, kappa)
heavy 1: not shown
heavy 2: not shown
light: DIVMTQSPLSLPVTPGEPASISCQASESLVHSNRNTYLHWYLQKPGQSPQLLIYKVSNRFSGVPDRFSGSGSGTDFTLKISRVEAEDVGVYYCSQNTHVPPTFGQGTKVEIERTVAAPSVFIFPPSDEQLKSGTASVVCLLNNFYPREAKVQWKVDNALQSGNSQESVTEQDSKDSTYSLSSTLTLSKADYEKHKVYACEVTHQGLSSPVTKSFNRGEC
notes: as for B1
He_2aH/2b (IIaH/IIb) [1]: 0.76 ratio
He/Con_2aH [2]: 108 % of HeCon Ab (=100)
He/Con_2b [3]: 142 % of HeCon Ab (=100)

B8: GpH7-A5/GpH7-B3 variant L328_04F/GpL16-k0 (antibody, human IgG1, kappa)
heavy 1: not shown
heavy 2: not shown
light: DIVMTQSPLSLPVTPGEPASISCQASESLVHSNRNTYLHWYLQKPGQSPQLLIYKVSNRFSGVPDRFSGSGSGTDFTLKISRVEAEDVGVYYCSQNTHVPPTFGQGTKVEIERTVAAPSVFIFPPSDEQLKSGTASVVCLLNNFYPREAKVQWKVDNALQSGNSQESVTEQDSKDSTYSLSSTLTLSKADYEKHKVYACEVTHQGLSSPVTKSFNRGEC
notes: as for B1
He_2aH/2b (IIaH/IIb) [1]: 0.33 ratio
He/Con_2aH [2]: 71.7 % of HeCon Ab (=100)
He/Con_2b [3]: 219 % of HeCon Ab (=100)

B9: GpH7-A5/GpH7-B3 variant L328_07I/GpL16-k0 (antibody, human IgG1, kappa)
heavy 1: not shown
heavy 2: not shown
light: DIVMTQSPLSLPVTPGEPASISCQASESLVHSNRNTYLHWYLQKPGQSPQLLIYKVSNRFSGVPDRFSGSGSGTDFTLKISRVEAEDVGVYYCSQNTHVPPTFGQGTKVEIERTVAAPSVFIFPPSDEQLKSGTASVVCLLNNFYPREAKVQWKVDNALQSGNSQESVTEQDSKDSTYSLSSTLTLSKADYEKHKVYACEVTHQGLSSPVTKSFNRGEC
notes: as for B1
He_2aH/2b (IIaH/IIb) [1]: 0.59 ratio
He/Con_2aH [2]: 93.9 % of HeCon Ab (=100)
He/Con_2b [3]: 160 % of HeCon Ab (=100)

B10: GpH7-A5/GpH7-B3 variant L328_06M/GpL16-k0 (antibody, human IgG1, kappa)
heavy 1: not shown
heavy 2: not shown
light: DIVMTQSPLSLPVTPGEPASISCQASESLVHSNRNTYLHWYLQKPGQSPQLLIYKVSNRFSGVPDRFSGSGSGTDFTLKISRVEAEDVGVYYCSQNTHVPPTFGQGTKVEIERTVAAPSVFIFPPSDEQLKSGTASVVCLLNNFYPREAKVQWKVDNALQSGNSQESVTEQDSKDSTYSLSSTLTLSKADYEKHKVYACEVTHQGLSSPVTKSFNRGEC
notes: as for B1
He_2aH/2b (IIaH/IIb) [1]: 0.73 ratio
He/Con_2aH [2]: 104 % of HeCon Ab (=100)
He/Con_2b [3]: 142 % of HeCon Ab (=100)

B11: GpH7-A5/GpH7-B3 variant A327_10E/GpL16-k0 (antibody, human IgG1, kappa)
heavy 1: not shown
heavy 2: not shown
light: DIVMTQSPLSLPVTPGEPASISCQASESLVHSNRNTYLHWYLQKPGQSPQLLIYKVSNRFSGVPDRFSGSGSGTDFTLKISRVEAEDVGVYYCSQNTHVPPTFGQGTKVEIERTVAAPSVFIFPPSDEQLKSGTASVVCLLNNFYPREAKVQWKVDNALQSGNSQESVTEQDSKDSTYSLSSTLTLSKADYEKHKVYACEVTHQGLSSPVTKSFNRGEC
notes: as for B1
He_2aH/2b (IIaH/IIb) [1]: 0.65 ratio
He/Con_2aH [2]: 91.3 % of HeCon Ab (=100)
He/Con_2b [3]: 140 % of HeCon Ab (=100)

B12: GpH7-A5/GpH7-B3 variant L328_20W/GpL16-k0 (antibody, human IgG1, kappa)
heavy 1: not shown
heavy 2: not shown
light: DIVMTQSPLSLPVTPGEPASISCQASESLVHSNRNTYLHWYLQKPGQSPQLLIYKVSNRFSGVPDRFSGSGSGTDFTLKISRVEAEDVGVYYCSQNTHVPPTFGQGTKVEIERTVAAPSVFIFPPSDEQLKSGTASVVCLLNNFYPREAKVQWKVDNALQSGNSQESVTEQDSKDSTYSLSSTLTLSKADYEKHKVYACEVTHQGLSSPVTKSFNRGEC
notes: as for B1
He_2aH/2b (IIaH/IIb) [1]: 0.48 ratio
He/Con_2aH [2]: 113 % of HeCon Ab (=100)
He/Con_2b [3]: 235 % of HeCon Ab (=100)

B13: GpH7-A5/GpH7-B3 variant N325_13S/GpL16-k0 (antibody, human IgG1, kappa)
heavy 1: not shown
heavy 2: not shown
light: DIVMTQSPLSLPVTPGEPASISCQASESLVHSNRNTYLHWYLQKPGQSPQLLIYKVSNRFSGVPDRFSGSGSGTDFTLKISRVEAEDVGVYYCSQNTHVPPTFGQGTKVEIERTVAAPSVFIFPPSDEQLKSGTASVVCLLNNFYPREAKVQWKVDNALQSGNSQESVTEQDSKDSTYSLSSTLTLSKADYEKHKVYACEVTHQGLSSPVTKSFNRGEC
notes: as for B1
He_2aH/2b (IIaH/IIb) [1]: 0.45 ratio
He/Con_2aH [2]: 79.7 % of HeCon Ab (=100)
He/Con_2b [3]: 177 % of HeCon Ab (=100)

B14: GpH7-A5/GpH7-B3 variant A330_05P/GpL16-k0 (antibody, human IgG1, kappa)
heavy 1: not shown
heavy 2: not shown
light: DIVMTQSPLSLPVTPGEPASISCQASESLVHSNRNTYLHWYLQKPGQSPQLLIYKVSNRFSGVPDRFSGSGSGTDFTLKISRVEAEDVGVYYCSQNTHVPPTFGQGTKVEIERTVAAPSVFIFPPSDEQLKSGTASVVCLLNNFYPREAKVQWKVDNALQSGNSQESVTEQDSKDSTYSLSSTLTLSKADYEKHKVYACEVTHQGLSSPVTKSFNRGEC
notes: as for B1
He_2aH/2b (IIaH/IIb) [1]: 0.63 ratio
He/Con_2aH [2]: 85.7 % of HeCon Ab (=100)
He/Con_2b [3]: 137 % of HeCon Ab (=100)

B15: GpH7-A5/GpH7-B3 variant L328_09D/GpL16-k0 (antibody, human IgG1, kappa)
heavy 1: not shown
heavy 2: not shown
light: DIVMTQSPLSLPVTPGEPASISCQASESLVHSNRNTYLHWYLQKPGQSPQLLIYKVSNRFSGVPDRFSGSGSGTDFTLKISRVEAEDVGVYYCSQNTHVPPTFGQGTKVEIERTVAAPSVFIFPPSDEQLKSGTASVVCLLNNFYPREAKVQWKVDNALQSGNSQESVTEQDSKDSTYSLSSTLTLSKADYEKHKVYACEVTHQGLSSPVTKSFNRGEC
notes: as for B1
He_2aH/2b (IIaH/IIb) [1]: 0.29 ratio
He/Con_2aH [2]: 58.5 % of HeCon Ab (=100)
He/Con_2b [3]: 199 % of HeCon Ab (=100)

B16: GpH7-A5/GpH7-B3 variant L328_05P/GpL16-k0 (antibody, human IgG1, kappa)
heavy 1: not shown
heavy 2: not shown
light: DIVMTQSPLSLPVTPGEPASISCQASESLVHSNRNTYLHWYLQKPGQSPQLLIYKVSNRFSGVPDRFSGSGSGTDFTLKISRVEAEDVGVYYCSQNTHVPPTFGQGTKVEIERTVAAPSVFIFPPSDEQLKSGTASVVCLLNNFYPREAKVQWKVDNALQSGNSQESVTEQDSKDSTYSLSSTLTLSKADYEKHKVYACEVTHQGLSSPVTKSFNRGEC
notes: as for B1
He_2aH/2b (IIaH/IIb) [1]: 0.7 ratio
He/Con_2aH [2]: 45.4 % of HeCon Ab (=100)
He/Con_2b [3]: 65.1 % of HeCon Ab (=100)
